# Measured values reported in the nanobody polyreactivity screen of Harvey et al. (2022).
# Assay: yeast display, Sf9 membrane polyspecificity reagent, FACS + sequencing; frameworks hold sequencing errors
# Outline: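 Galactose-induced (36–48 hours) yeast carrying a synthetic nanobody display library were exposed to 10% biotinylated, detergent-solubilized Sf9 membrane reagent at 4 °C for 1 hour. FACS followed streptavidin microbead enrichment, using low and high (top ~1%) gates for expression (anti-HA) and reagent binding (streptavidin). Colony PCR, MiSeq 2 × 250 sequencing and CDR-length filtering followed. Labels for polyreactivity reflect the gate of origin.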
row,Sequence,polyreactivity (PSR sort gate)
1,QVQLVESGGGLVQAGGSLRLSCAASGITFRTYAMGWYRQAPGKERELVAAISSSGGSTYYADSVKGRFTISRDNAKNTVYLQMNSLKPADTAVYYCAAEWIADLSSPVWYDYWGQGTQVTVSS,high polyreactivity
2,QVQLVESGGGLVQAGGSLRLSCAASGITFRWNAMGWYRPAPGKARELVAAITYRGGSTHYADSVKGRFTISRDNGKNSVYIQMNSLKPEDTAVYYCAVRRWPRYRWSDYWVQGTQVTVSS,low polyreactivity
3,QVQLVESGGGLVQAGGSLRLSCAASGITFRYNAMGWYRQAPGKERQLVAGITGSGGRTYYADSVKGRFTISRDNAKNSVYLQMNSLKPEDTAVYYCAAYPPARRTMDYWGQGTQVTVSS,low polyreactivity
4,QVQLVESGGGLVQAGGSLRLSCAASGITFRYYAMGWDRQAPGKERELVAAINRGGDSTYYADSVKGRFTISRDNAKNTVYLQMNSLKPEDTAVYYCAASSYYRGTFYPSYYWGQGTQVTVSS,high polyreactivity
5,QVQLVESGGGLVQAGGSLRLSCAASGITFRYYAMGWYRQAPGKERELVAAISDGGSTNYADSVKGRFTISRDNAKNTVYLQMNSLKPEDTAVYYCDADYRYLFDYWGQGTQVTVSS,high polyreactivity
6,QVQLVESGGGLVQAGGSLRLSCAASGITFRYYAMGWYRQAPGKERELVAAISGSGGSTYYADSVKGRFTISRDNAKNTVYLQMNSLKPEDTAVNYCNVDKGYSRSLRLGYDYWGQGTEVTVSS,high polyreactivity
7,QVQLVESGGGLVQAGGSLRLSCAASGITFRYYAMGWYRQAPGKERELVAAISSTGGSTYYADSVKGRFTISRDNAKNTVYLQMNSLKPEDTAVYYCNADTTFYGYRTYRPENYWGQGTQVTVSS,high polyreactivity
8,QVQLVESGGGLVQAGGSLRLSCAASGITFRYYTMGWYRQAPGKERELVAAISRSGGSTYYADSVKGRFTISRDNAKNNVYLQMNSLKPEDTAVYYCAVDYTYDMDYWGQGTQVTVSS,high polyreactivity
9,QVQLVESGGGLVQAGGSLRLSCAASGITFSDYAMGWYRQAPGKEWELVAAISARGGSTYYADSVKGRFTISRDNAKNTVYLQMNSLKPEDTAVYYCAADKRTPYYSRAGMDYWGQGTQVTVSS,low polyreactivity
10,QVQLVESGGGLVQAGGSLRLSCAASGITFSGNAMGWYRQAPGKERELVAAITWRGDNTYYADSVKGRFTISRDNAKNTVYLQMNSLKPEDTAVYSCAAKSPLFGLTSYPGPDDSWGQGTQVTVSS,low polyreactivity
11,QVQLVESGGGLVQAGGSLRLSCAASGITFSGNTMGWYRQAPGKERELVAAISSGGSTYYADSVKGRFTISRDNAKNTVLLQMNSLKPEDTAVYYCNADIYYAPYDYWGQGTQVTVSS,low polyreactivity
12,QVQLVESGGGLVQAGGSLRLSCAASGITFSNYSMGWYRQAPGKERELVAAISKRGGSTYYADSVKGRFTISRDNAKNTVYLQMNSLKPEDTAVYYCAAAGVRVYVRSGLDYWGQGTQVTVSS,high polyreactivity
13,QVQLVESGGGLVQAGGSLRLSCAASGITFSQYAMGWYRQAPGTERELVAAISGSGGDTYYADSVKGRFTISRDNAKNTVYLQMNSLKPEDTAVYYCNADYESVYYEDYDYWGQGTQVTVSS,low polyreactivity
14,QVQLVESGGGLVQAGGSLRLSCAASGITFSRNAMGWYRQAPGKERELVAAINWTGGNTYYADSVKGRFTISRDNAKNTVYLQMNSLKPEDTAVYYCAADRRWFVWGLGYWGQGTQVTVSS,low polyreactivity
15,QVQLVESGGGLVQAGGSLRLSCAASGITFSRNAMGWYRQAPGNERELVATITSGCSTNYADSVKGRFTISRDNAKNNVYLQMNSLKPEDTAIYYCNAVWNTFISGRSYDYWGQGTQVTVSS,low polyreactivity
16,QVQLVESGGGLVQAGGSLRLSCAASGITFSRNARGGERQAPGQERELVATITSGGSTNYADSVKGRFTISRDNAKNTVYLQMNSLKPEDTAVFYCNAVWNTFISGRSYDYWGQGTQVTVSS,low polyreactivity
17,QVQLVESGGGLVQAGGSLRLSCAASGITFSRNVMGWSRQAPGKERELVAAISRSGGRTYYADSVKGRFTISRDNAMYTVYLQMNRLKPEDTAVYYCNRDIGGTSVLDDYWGQGNQVTVSS,low polyreactivity
18,QVQLVESGGGLVQAGGSLRLSCAASGITFSSYAMGWYRQAPGTEREFVARISTDADTYYADSVKGRFTISRDNAKHTVLLQMNSLKPEDTAVYYCAAEDYRDFDYWGHGTQVTVSS,low polyreactivity
19,QVQLVESGGGLVQAGGSLRLSCAASGITFSYNAMGWSRQAPGKERELVAAISSNSDSTYYADSVKGRFTISRDNAKNTVYLQMNSLKPEDTAVYYCAADSPDDPDYSGFYYWGQGSQVTVSS,low polyreactivity
20,QVQLVESGGGLVQAGGSLRLSCAASGITFSYNAMGWYRQAPGKERELVAAISDIGGSTYYADSVKGRFTISRDNAKITVYLQMNSLKPEDTAVYYCAADEYYQDEYDYWGQGTQVTVSS,low polyreactivity
21,QVQLVESGGGLVQAGGSLRLSCAASGITFSYNAMGWYRQAPGKERELVAAISSNSDSTYYADSVKGRFTISRDYAKNTVYLQMNRLKPEDTAVYYCAADTPDAPDYSGFYYWGQGTQVTVSS,low polyreactivity

row,Sequence,polyreactivity (PSR sort gate)
1,QVQLVESGGGLVQAGGSLRLSCAASGITFSYYAMGWYRPAPGKERELVAAINSGGGSTYYADSVKGRFTISRDNAKNTVFLQMNSLKPDDTAVYYCAARYRSRYEYYYDRDYWGQGTQVSVSS,low polyreactivity
2,QVQLVESGGGLVQAGGSLRLSCAASGITFSYYAMGWYRQAPGKERELVAAINGGGSRTYYADSVKGRFTISRDNAKNTVYLQMNSLKPEDTAVYYCAAYSGQARGYDYWGQGTQVTVSS,high polyreactivity
3,QVQLVESGGGLVQAGGSLRLSCAASGITFTFNAMGWYRQAPGKERELVAAITWSGGSTFYADSVKGRFTFSRDNAKNTVYLQMNSLKPEDTAVYYCARDTELYVRWLDYWVQGTQVTVSS,low polyreactivity
4,QVQLVESGGGLVQAGGSLRLSCAASGITFTPNAMGWYRQAPGKEREFVAAITYSGGSTYYADSVKGRFTISRDNAKNTVYLQMNSLKPEDTAVYYCAAVYYLLYYEAYYYWGQGTQVTVSS,low polyreactivity
5,QVQLVESGGGLVQAGGSLRLSCAASGITFTPYAMGWYRQAPGKERELVAAITSGGSTNYADSVKGRFTISRDNAKNTVYLQMNSLKPEDTAVYYCAAGRWPAPWYTRNYWGQGTQVTVSS,low polyreactivity
6,QVQLVESGGGLVQAGGSLRLSCAASGITFTRNVMGWYRQAPGKERELVAAISGSGGSTYYADSVKGRFTISRDNEKNTVYLQMNSLKTEDTAVYYCAARSRGGRRYDYWGQGTQVTVSS,high polyreactivity
7,QVQLVESGGGLVQAGGSLRLSCAASGITFTRYAMGWYRQAPGKERELVAAISSGGRTNYADSVKGRFTISRDNAKNTVYLQMNSLKPEDTGVYYCNAAGHRWDPRYHYWGQGTQVTVSS,high polyreactivity
8,QVQLVESGGGLVQAGGSLRLSCAASGITFTSNTLGWYRQAPGKERELVAAISKSGGSTYYADSVKGRFTISRDNAKNTVYLQMNSLKPEDTAVYYCAKDSDYYRRDVTVDYWGQGTQVTVSS,low polyreactivity
9,QVQLVESGGGLVQAGGSLRLSCAASGITFTSNTMGWYRQAPGKERELVAAISKSGGSTYYADSVKGRFTISRDNEKNTVYLQMNSLKPEDTAVYYCNTVSFYDPFGAYGYWGQGTQVTVSS,high polyreactivity
10,QVQLVESGGGLVQAGGSLRLSCAASGITFTSYAMGWYRQAPGKERELVAAISAGGGRTYYADSVKGRFTISRDNAKNTVYLQMNSLKPEDTAVYYCAVKYPELRTWGYYYWGQGTQVTVSS,high polyreactivity
11,QVQLVESGGGLVQAGGSLRLSCAASGITFTSYVMGWYRQAPGKERELVAAISRSGGSSTYYADSVKGRFTISRDNAKNTVYLQMNSLKPEDTAVYYCAADSPYTGGANVYWGQGTQVTVSS,high polyreactivity
12,QVQLVESGGGLVQAGGSLRLSCAASGITFTVYAMGWYRQAPGKERELVAAITSTGSTNYAHSVKGRFTISRDNAKNTVYLLMNSLKPEDTAVYYCAADRQITVYAYDYWGQGTQVTVSS,low polyreactivity
13,QVQLVESGGGLVQAGGSLRLSCAASGITFTYYAMGWYRQAPGKERELVAAITWRGGSTYYADSVKGRFTISRDNAKNTVYLQMNSLKPEDTAVYYCAADVYVGPYHYEYWGQGTQVTVSS,high polyreactivity
14,QVQLVESGGGLVQAGGSLRLSCAASGITFVGNAMGWSRQAPGKERELVAAMSSSGASTYYADSVKGRFTISRDYAKNTVYLQMNSLKPEDTAVYYCNAGWGVVIRRYPTYDYWGQGTQVTVSS,high polyreactivity
15,QVQLVESGGGLVQAGGSLRLSCAASGITFVHNVMGWYRQAPGKERELVAAINSGGRTYYADSVKGRFTISRDNAKNTVYLQMNSLKPEDTAVYYCAALGDKRGGGNYWGQGTQVTVSS,high polyreactivity
16,QVQLVESGGGLVQAGGSLRLSCAASGITFVLNARGWYRQAPGKERELVARISWSTGSTYYADSVKGRFTISRDNAKNTVYLQMNSLKPEDTAVYYCAVDYNYQSLYVVVEGEYWGQGTQVTVSS,low polyreactivity
17,QVQLVESGGGLVQAGGSLRLSCAASGITFVLYAMGWYRQAPGKERELVAANSSSGGRTYYADSVKGRFTISRDYAKNTVYLQMNSLKPEDTAVYYCAKDTYGFAANRPAGDGYWGQGTQVTVSS,high polyreactivity
18,QVQLVESGGGLVQAGGSLRLSCAASGITFVNNSRGCYRQAPVKEREFVAAISQGGGSTYYADSVKGRFTISRDNAKYTVYLQMNSLKPEDTAVYYCAAEIPRWWRFGYWGQGTQVTVSS,low polyreactivity
19,QVQLVESGGGLVQAGGSLRLSCAASGITFVPNAMGWYRQAPGKERELVAAITGNGGRTYYADSVKGRFTISRDNAKNTVYLQMNSLKPEDTAVYYCNGRKLYWAYTLSKYDYWGQGTQLTVSS,high polyreactivity
20,QVQLVESGGGLVQAGGSLRLSCAASGITFVQNVMGWYRQAPGKEREFVAGINYSGGSTYYADSVKGRFTISRDNAKNTVYLQMNSLKPEDTAVYYCAADYDRYTYAFVYRYRRMYYWGQGTQVTVSS,low polyreactivity
